Test results as given in IntAct's records for PubMed 31515488.

B1: Paraneoplastic antigen-like protein 5 (Homo sapiens), Q96PV4 (parent)
chain: MALTLLEDWCKGMDMDPRKALLIVGIPMECSEVEIQDTVKAGLQPLCAYRVLGRMFRREDNAKAVFIELADTVNYTTLPSHIPGKGGSWEVVVKPRNPDDEFLSRLNYFLKDEGRSMTDVARALGCCSLPAESLDAEVMPQVRSPPLEPPKESMWYRKLKVFSGTASPSPGEETFEDWLEQVTEIMPIWQVSEVEKRRRLLESLRGPALSIMRVLQANNDSITVEQCLDALKQIFGDKEDFRASQFRFLQTSPKIGEKVSTFLLRLEPLLQKAVHKSPLSVRSTDMIRLKHLLARVAMTPALRGKLELLDQRGCPPNFLELMKLIRDEEEWENTEAVMKNKEKPSGRGRGASGRQARAEASVSAPQATVQARSFSDSSPQTIQGGLPPLVKRRRLLGSESTRGEDHGQATYPKAENQTPGREGPQAAGEELGNEAGAGAMSHPKPWET

Variants of: B1
Conditions: with arpc4_human ARPC4, P59998

effect of a mutation on the interaction	Variant
with no effect	V274M
with no effect	T261A
disrupting interaction strength	L21Q

Variants of: B1
Conditions: with zfy26_human ZFYVE26, Q68DK2
Sequence of zfy26_human ZFYVE26, Q68DK2 (Q68DK2 whole entry): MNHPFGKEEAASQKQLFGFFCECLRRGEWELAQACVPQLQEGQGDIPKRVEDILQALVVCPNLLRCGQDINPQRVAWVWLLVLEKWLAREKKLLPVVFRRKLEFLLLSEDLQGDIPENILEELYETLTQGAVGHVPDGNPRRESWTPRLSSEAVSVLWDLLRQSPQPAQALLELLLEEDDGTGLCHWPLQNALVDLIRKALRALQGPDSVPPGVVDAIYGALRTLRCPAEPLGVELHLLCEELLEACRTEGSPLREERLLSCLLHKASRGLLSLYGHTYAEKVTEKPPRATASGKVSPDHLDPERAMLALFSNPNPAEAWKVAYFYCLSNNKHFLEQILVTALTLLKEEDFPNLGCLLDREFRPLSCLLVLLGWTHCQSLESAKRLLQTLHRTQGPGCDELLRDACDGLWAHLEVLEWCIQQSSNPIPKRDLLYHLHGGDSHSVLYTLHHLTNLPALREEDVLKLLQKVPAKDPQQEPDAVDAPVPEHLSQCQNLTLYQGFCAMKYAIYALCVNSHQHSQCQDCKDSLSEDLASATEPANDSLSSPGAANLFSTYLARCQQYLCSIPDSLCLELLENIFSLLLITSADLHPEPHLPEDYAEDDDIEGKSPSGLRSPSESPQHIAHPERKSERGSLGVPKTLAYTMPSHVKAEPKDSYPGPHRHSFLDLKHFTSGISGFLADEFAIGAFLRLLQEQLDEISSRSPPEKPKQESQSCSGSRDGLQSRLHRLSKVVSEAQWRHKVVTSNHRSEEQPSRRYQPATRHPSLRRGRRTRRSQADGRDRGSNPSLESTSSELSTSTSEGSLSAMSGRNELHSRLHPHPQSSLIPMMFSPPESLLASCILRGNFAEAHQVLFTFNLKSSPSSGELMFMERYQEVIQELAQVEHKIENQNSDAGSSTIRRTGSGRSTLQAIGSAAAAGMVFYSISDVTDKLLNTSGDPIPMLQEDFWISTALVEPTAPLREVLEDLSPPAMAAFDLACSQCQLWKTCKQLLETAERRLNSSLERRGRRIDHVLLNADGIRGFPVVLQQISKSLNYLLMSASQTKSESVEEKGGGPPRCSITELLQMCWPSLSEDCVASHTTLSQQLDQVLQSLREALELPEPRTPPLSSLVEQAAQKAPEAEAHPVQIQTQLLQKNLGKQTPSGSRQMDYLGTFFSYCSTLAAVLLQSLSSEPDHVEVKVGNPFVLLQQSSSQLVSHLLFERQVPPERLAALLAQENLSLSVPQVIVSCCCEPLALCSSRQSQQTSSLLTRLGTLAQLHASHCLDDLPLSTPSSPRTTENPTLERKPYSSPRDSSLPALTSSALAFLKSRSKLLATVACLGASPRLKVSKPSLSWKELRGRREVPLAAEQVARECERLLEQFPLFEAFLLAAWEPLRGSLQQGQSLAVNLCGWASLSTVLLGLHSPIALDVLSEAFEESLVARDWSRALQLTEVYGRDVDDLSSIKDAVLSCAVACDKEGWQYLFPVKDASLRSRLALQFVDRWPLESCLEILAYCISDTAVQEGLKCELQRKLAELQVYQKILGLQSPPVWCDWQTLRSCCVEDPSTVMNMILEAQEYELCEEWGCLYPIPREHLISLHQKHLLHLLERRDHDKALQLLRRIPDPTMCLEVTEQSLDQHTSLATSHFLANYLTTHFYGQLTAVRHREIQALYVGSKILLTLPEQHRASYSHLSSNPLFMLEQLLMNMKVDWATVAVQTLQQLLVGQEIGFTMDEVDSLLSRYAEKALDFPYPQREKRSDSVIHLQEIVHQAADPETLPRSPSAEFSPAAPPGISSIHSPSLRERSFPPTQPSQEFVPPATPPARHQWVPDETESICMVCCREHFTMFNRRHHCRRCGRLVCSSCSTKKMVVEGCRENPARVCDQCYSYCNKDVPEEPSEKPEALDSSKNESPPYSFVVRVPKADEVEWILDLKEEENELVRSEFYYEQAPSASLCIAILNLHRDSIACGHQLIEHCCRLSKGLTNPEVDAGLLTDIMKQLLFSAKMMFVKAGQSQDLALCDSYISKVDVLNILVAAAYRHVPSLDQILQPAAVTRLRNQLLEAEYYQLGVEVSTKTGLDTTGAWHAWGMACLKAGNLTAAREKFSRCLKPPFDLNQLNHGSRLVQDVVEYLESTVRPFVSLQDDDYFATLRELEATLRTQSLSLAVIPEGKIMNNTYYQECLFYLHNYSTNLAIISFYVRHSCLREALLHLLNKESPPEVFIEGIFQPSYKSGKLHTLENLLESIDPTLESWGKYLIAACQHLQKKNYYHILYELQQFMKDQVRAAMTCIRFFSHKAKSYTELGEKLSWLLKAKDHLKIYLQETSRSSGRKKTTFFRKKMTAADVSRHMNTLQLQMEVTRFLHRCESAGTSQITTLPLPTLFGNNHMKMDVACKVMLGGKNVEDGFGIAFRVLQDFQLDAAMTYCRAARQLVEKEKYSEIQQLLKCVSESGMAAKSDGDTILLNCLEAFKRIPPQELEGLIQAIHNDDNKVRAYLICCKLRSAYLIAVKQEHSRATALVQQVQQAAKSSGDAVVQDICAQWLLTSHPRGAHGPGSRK

effect of a mutation on the interaction	Variant
with no effect	V274M
with no effect	T261A
disrupting interaction strength	L21Q

Variants of: B1
Conditions: with ccnc_human CCNC

effect of a mutation on the interaction	Variant
with no effect	V274M
with no effect	T261A
disrupting interaction strength	L21Q

Variants of: B1
Conditions: with aapk1_human PRKAA1, Q13131
Sequence of aapk1_human PRKAA1, Q13131 (Q13131 whole entry, looked up): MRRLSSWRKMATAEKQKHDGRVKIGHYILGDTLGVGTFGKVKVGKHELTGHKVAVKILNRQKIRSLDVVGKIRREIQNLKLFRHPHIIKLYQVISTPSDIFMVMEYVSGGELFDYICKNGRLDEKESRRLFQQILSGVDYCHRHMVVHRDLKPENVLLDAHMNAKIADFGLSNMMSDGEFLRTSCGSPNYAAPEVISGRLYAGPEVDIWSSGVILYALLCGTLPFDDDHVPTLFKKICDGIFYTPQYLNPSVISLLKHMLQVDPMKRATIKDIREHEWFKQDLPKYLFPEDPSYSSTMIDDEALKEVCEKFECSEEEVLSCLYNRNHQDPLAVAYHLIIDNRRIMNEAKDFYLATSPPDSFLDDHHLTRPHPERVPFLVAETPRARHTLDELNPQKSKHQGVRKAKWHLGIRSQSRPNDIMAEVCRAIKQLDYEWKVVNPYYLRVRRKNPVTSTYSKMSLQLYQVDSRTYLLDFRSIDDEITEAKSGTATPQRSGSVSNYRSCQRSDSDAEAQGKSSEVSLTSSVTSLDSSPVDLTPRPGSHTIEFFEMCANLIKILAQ

effect of a mutation on the interaction	Variant
with no effect	V274M
with no effect	T261A
disrupting interaction strength	L21Q
